± gives the standard deviation of the averaged measurements.
Test: total protein half-life in vivo (active degradation + dilution); higher = more stable protein
[1] = E. coli NCM3722 delta-clpP delta-lon delta-hslV, growth: N-lim chemostat, doubling time 6 h
[2] = E. coli NCM3722 delta-clpP, growth: N-lim chemostat, doubling time 6 h
[3] = E. coli NCM3722 delta-lon, growth: N-lim chemostat, doubling time 6 h
[4] = E. coli NCM3722 delta-smpB, growth: N-lim chemostat, doubling time 6 h
[5] = wild type E. coli NCM3722, growth: C-lim chemostat, doubling time 3 h
[6] = wild type E. coli NCM3722, growth: C-lim chemostat, doubling time 6 h
[7] = wild type E. coli NCM3722, growth: C-lim chemostat, doubling time 12 h
[8] = wild type E. coli NCM3722, growth: N-lim chemostat, doubling time 6 h
[9] = wild type E. coli NCM3722, growth: N-lim chemostat, doubling time 12 h
[10] = wild type E. coli NCM3722, growth: P-lim chemostat, doubling time 6 h
[11] = wild type E. coli NCM3722, growth: P-lim chemostat, doubling time 12 h
[12] = E. coli NCM3722 delta-hslV, growth: N-lim chemostat, doubling time 6 h

MFDIGVNLTSSQFAKDRDDVVACAFDAGVNGLLITGTNLRESQQAQKLARQYSSCWSTAGVHPHDSSQWQAATEEAIIELAAQPEVVAIGECGLDFNRNFSTPEEQERAFVAQLRIAADLNMPVFMHCRDAHERFMTLLEPWLDKLPGAVLHCFTGTREEMQACVAHGIYIGITGWVCDERRGLELRELLPLIPAEKLLIETDAPYLLPRDLTPKPSSRRNEPAHLPHILQRIAHWRGEDAAWLAATTDANVKTLFGIAF
total protein half-life in vivo [1]: 5.07 ± 0.43 h
total protein half-life in vivo [2]: 4.32 ± 0.31 h
total protein half-life in vivo [3]: 5.25 ± 0.68 h
total protein half-life in vivo [4]: 3.97 ± 0.48 h
total protein half-life in vivo [5]: 2.67 h
total protein half-life in vivo [6]: 5.44 ± 0.34 h
total protein half-life in vivo [7]: 8.95 ± 0.15 h
total protein half-life in vivo [8]: 5.25 ± 1 h
total protein half-life in vivo [9]: 8.13 ± 1.8 h
total protein half-life in vivo [10]: 4.15 ± 0.38 h
total protein half-life in vivo [11]: 9.01 ± 0.23 h

MFDRYDAGEQAVLVHIYFTQDKDMEDLQEFESLVSSAGVEALQVITGSRKAPHPKYFVGEGKAVEIAEAVKATGASVVLFDHALSPAQERNLERLCECRVIDRTGLILDIFAQRARTHEGKLQVELAQLRHLATRLVRGWTHLERQKGGIGLRGPGETQLETDRRLLRNRIVQIQSRLERVEKQREQGRQSRIKADVPTVSLVGYTNAGKSTLFNRITEARVYAADQLFATLDPTLRRIDVADVGETVLADTVGFIRHLPHDLVAAFKATLQETRQATLLLHVIDAADVRVQENIEAVNTVLEEIDAHEIPTLLVMNKIDMLEDFEPRIDRDEENKPNRVWLSAQTGAGIPQLFQALTERLSGEVAQHTLRLPPQEGRLRSRFYQLQAIEKEWMEEDGSVSLQVRMPIVDWRRLCKQEPALIDYLI
total protein half-life in vivo [1]: 5.01 ± 0.4 h
total protein half-life in vivo [2]: 4.19 ± 0.56 h
total protein half-life in vivo [12]: 3.18 ± 0.019 h
total protein half-life in vivo [3]: 3.87 ± 0.12 h
total protein half-life in vivo [4]: 2.77 ± 0.12 h
total protein half-life in vivo [5]: 2.34 ± 0.078 h
total protein half-life in vivo [6]: 4.15 ± 0.4 h
total protein half-life in vivo [7]: 5.93 ± 0.57 h
total protein half-life in vivo [8]: 3.31 ± 0.19 h
total protein half-life in vivo [9]: 4.68 ± 0.19 h
total protein half-life in vivo [10]: 3.34 ± 0.12 h
total protein half-life in vivo [11]: 5.9 ± 0.61 h

MFDSTLNPLWQRYILAVQEEVKPALGCTEPISLALAAAVAAAELEGPVERVEAWVSPNLMKNGLGVTVPGTGMVGLPIAAALGALGGNANAGLEVLKDATAQAIADAKALLAAGKVSVKIQEPCDEILFSRAKVWNGEKWACVTIVGGHTNIVHIETHDGVVFTQQACVAEGEQESPLTVLSRTTLAEILKFVNEVPFAAIRFILDSAKLNCALSQEGLSGKWGLHIGATLEKQCERGLLAKDLSSSIVIRTSAASDARMGGATLPAMSNSGSGNQGITATMPVVVVAEHFGADDERLARALMLSHLSAIYIHNQLPRLSALCAATTAAMGAAAGMAWLVDGRYETISMAISSMIGDVSGMICDGASNSCAMKVSTSASAAWKAVLMALDDTAVTGNEGIVAHDVEQSIANLCALASHSMQQTDRQIIEIMASKAR
total protein half-life in vivo [1]: 4.74 ± 0.075 h

MFEINPVNNRIQDLTERSDVLRGYLDYDAKKERLEEVNAELEQPDVWNEPERAQALGKERSSLEAVVDTLDQMKQGLEDVSGLLELAVEADDEETFNEAVAELDALEEKLAQLEFRRMFSGEYDSADCYLDIQAGSGGTEAQDWASMLERMYLRWAESRGFKTEIIEESEGEVAGIKSVTIKISGDYAYGWLRTETGVHRLVRKSPFDSGGRRHTSFSSAFVYPEVDDDIDIEINPADLRIDVYRTSGAGGQHVNRTESAVRITHIPTGIVTQCQNDRSQHKNKDQAMKQMKAKLYELEMQKKNAEKQAMEDNKSDIGWGSQIRSYVLDDSRIKDLRTGVETRNTQAVLDGSLDQFIEASLKAGL
total protein half-life in vivo [1]: 5.162 ± 0.05 h
total protein half-life in vivo [2]: 4.669 ± 0.007 h
total protein half-life in vivo [12]: 4.335 ± 0.033 h
total protein half-life in vivo [3]: 5.14 ± 0.28 h
total protein half-life in vivo [4]: 4.282 ± 0.0079 h
total protein half-life in vivo [5]: 2.79 ± 0.044 h
total protein half-life in vivo [6]: 4.99 ± 0.27 h
total protein half-life in vivo [7]: 8.37 ± 0.37 h
total protein half-life in vivo [8]: 4.37 ± 0.28 h
total protein half-life in vivo [9]: 6.87 ± 0.013 h
total protein half-life in vivo [10]: 4.6 ± 0.33 h
total protein half-life in vivo [11]: 8.54 ± 0.3 h

MFEITGINVSGALKAVVMATGFENPLSSVNEIETKLSALLGSETTGEILFDLLCANGPEWNRFVTLEMKYGRIMLDTAKIIDEQDVPTHILSKLTFTLRNHPEYLEASVLSPDDVRQVLSMDF
total protein half-life in vivo [1]: 5.32 ± 0.4 h
total protein half-life in vivo [5]: 2.73 h
total protein half-life in vivo [6]: 5.11 h

MFGKLSLDAVPFHEPIVMVTIAGIILGGLALVGLITYFGKWTYLWKEWLTSVDHKRLGIMYIIVAIVMLLRGFADAIMMRSQQALASAGEAGFLPPHHYDQIFTAHGVIMIFFVAMPFVIGLMNLVVPLQIGARDVAFPFLNNLSFWFTVVGVILVNVSLGVGEFAQTGWLAYPPLSGIEYSPGVGVDYWIWSLQLSGIGTTLTGINFFVTILKMRAPGMTMFKMPVFTWASLCANVLIIASFPILTVTVALLTLDRYLGTHFFTNDMGGNMMMYINLIWAWGHPEVYILILPVFGVFSEIAATFSRKRLFGYTSLVWATVCITVLSFIVWLHHFFTMGAGANVNAFFGITTMIIAIPTGVKIFNWLFTMYQGRIVFHSAMLWTIGFIVTFSVGGMTGVLLAVPGADFVLHNSLFLIAHFHNVIIGGVVFGCFAGMTYWWPKAFGFKLNETWGKRAFWFWIIGFFVAFMPLYALGFMGMTRRLSQQIDPQFHTMLMIAASGAVLIALGILCLVIQMYVSIRDRDQNRDLTGDPWGGRTLEWATSSPPPFYNFAVVPHVHERDAFWEMKEKGEAYKKPDHYEEIHMPKNSGAGIVIAAFSTIFGFAMIWHIWWLAIVGFAGMIITWIVKSFDEDVDYYVPVAEIEKLENQHFDEITKAGLKNGN [P0ABI8]
total protein half-life in vivo [1]: 6.54 ± 0.5 h
total protein half-life in vivo [12]: 6.89 ± 0.66 h
total protein half-life in vivo [3]: 6.02 ± 0.071 h
total protein half-life in vivo [4]: 6.54 ± 0.66 h
total protein half-life in vivo [6]: 5.86 ± 0.97 h
total protein half-life in vivo [7]: 14.5 ± 0.29 h
total protein half-life in vivo [8]: 5.84 ± 0.49 h
total protein half-life in vivo [9]: 11.9 ± 0.69 h
total protein half-life in vivo [10]: 6.04 ± 0.13 h

MFILWYSASSTFGKDSDIVMGVRAQQKEKTRRSLVEAAFSQLSAERSFASLSLREVAREAGIAPTSFYRHFRDVDELGLTMVDESGLMLRQLMRQARQRIAKGGSVIRTSVSTFMEFIGNNPNAFRLLLRERSGTSAAFRAAVAREIQHFIAELADYLELENHMPRAFTEAQAEAMVTIVFSAGAEALDVGVEQRRQLEERLVLQLRMISKGAYYWYRREQEKTAIIPGNVKDE [P0ACU5]
total protein half-life in vivo [1]: 6.31 ± 0.35 h
total protein half-life in vivo [2]: 5.81 ± 0.25 h
total protein half-life in vivo [12]: 6.25 ± 0.1 h
total protein half-life in vivo [4]: 5.957 ± 0.021 h
total protein half-life in vivo [5]: 2.73 ± 0.18 h
total protein half-life in vivo [6]: 5.97 ± 0.75 h
total protein half-life in vivo [7]: 11.2 ± 2.1 h
total protein half-life in vivo [8]: 5.71 ± 0.12 h
total protein half-life in vivo [9]: 10.4 ± 1.6 h
total protein half-life in vivo [10]: 5.31 ± 0.57 h
total protein half-life in vivo [11]: 10.88 ± 0.052 h

MFKEIFTRLIRHLPSRLVHRDPLPGAQQTVNTVVPPSLSAHCLKMAVMPEEELWKTFDTHPEGLNQAEVESAREQHGENKLPAQQPSPWWVHLWVCYRNPFNILLTILGAISYATEDLFAAGVIALMVAISTLLNFIQEARSTKAADALKAMVSNTATVLRVINDKGENGWLEIPIDQLVPGDIIKLAAGDMIPADLRILQARDLFVAQASLTGESLPVEKAATTRQPEHSNPLECDTLCFMGTTVVSGTAQAMVIATGANTWFGQLAGRVSEQESEPNAFQQGISRVSMLLIRFMLVMAPVVLLINGYTKGDWWEAALFALSVAVGLTPEMLPMIVTSTLARGAVKLSKQKVIVKHLDAIQNFGAMDILCTDKTGTLTQDKIVLENHTDISGKTSERVLHSAWLNSHYQTGLKNLLDTAVLEGTDEESARSLASRWQKIDEIPFDFERRRMSVVVAENTEHHQLVCKGALQEILNVCSQVRHNGEIVPLDDIMLRKIKRVTDTLNRQGLRVVAVATKYLPAREGDYQRADESDLILEGYIAFLDPPKETTAPALKALKASGITVKILTGDSELVAAKVCHEVGLDAGEVVIGSDIETLSDDELANLAQRTTLFARLTPMHKERIVTLLKREGHVVGFMGDGINDAPALRAADIGISVDGAVDIAREAADIILLEKSLMVLEEGVIEGRRTFANMLKYIKMTASSNFGNVFSVLVASAFLPFLPMLPLHLLIQNLLYDVSQVAIPFDNVDDEQIQKPQRWNPADLGRFMIFFGPISSIFDILTFCLMWWVFHANTPETQTLFQSGWFVVGLLSQTLIVHMIRTRRVPFIQSCASWPLMIMTVIVMIVGIALPFSPLASYLQLQALPLSYFPWLVAILAGYMTLTQLVKGFYSRRYGWQ [P0ABB8]
total protein half-life in vivo [1]: 6.31 h
total protein half-life in vivo [2]: 6.68 ± 0.68 h
total protein half-life in vivo [12]: 6.44 ± 0.53 h
total protein half-life in vivo [4]: 5.89 ± 0.47 h
total protein half-life in vivo [6]: 6.91 ± 0.4 h
total protein half-life in vivo [7]: 14.8 ± 0.69 h
total protein half-life in vivo [8]: 6.72 ± 0.55 h
total protein half-life in vivo [9]: 14.4 ± 1.3 h
total protein half-life in vivo [10]: 6.71 ± 0.3 h

MFKKSVLFATLLSGVMAFSTNADDKIILKHISVSSVSASPTVLEDTIADIARKYNASSWKVTSMRIDNNSTATAVLYK
total protein half-life in vivo [12]: 5.17 ± 1.6 h
total protein half-life in vivo [4]: 6.02 ± 0.31 h
total protein half-life in vivo [6]: 3.54 ± 0.083 h
total protein half-life in vivo [7]: 6.51 ± 5.1 h
total protein half-life in vivo [8]: 3.93 h
total protein half-life in vivo [9]: 9.35 ± 3.8 h
total protein half-life in vivo [10]: 5.33 h
total protein half-life in vivo [11]: 11.5 h

MFKNAFANLQKVGKSLMLPVSVLPIAGILLGVGSANFSWLPAVVSHVMAEAGGSVFANMPLIFAIGVALGFTNNDGVSALAAVVAYGIMVKTMAVVAPLVLHLPAEEIASKHLADTGVLGGIISGAIAAYMFNRFYRIKLPEYLGFFAGKRFVPIISGLAAIFTGVVLSFIWPPIGSAIQTFSQWAAYQNPVVAFGIYGFIERCLVPFGLHHIWNVPFQMQIGEYTNAAGQVFHGDIPRYMAGDPTAGKLSGGFLFKMYGLPAAAIAIWHSAKPENRAKVGGIMISAALTSFLTGITEPIEFSFMFVAPILYIIHAILAGLAFPICILLGMRDGTSFSHGLIDFIVLSGNSSKLWLFPIVGIGYAIVYYTIFRVLIKALDLKTPGREDATEDAKATGTSEMAPALVAAFGGKENITNLDACITRLRVSVADVSKVDQAGLKKLGAAGVVVAGSGVQAIFGTKSDNLKTEMDEYIRNH
total protein half-life in vivo [1]: 6.96 ± 0.44 h
total protein half-life in vivo [2]: 6.21 ± 0.099 h
total protein half-life in vivo [12]: 6.68 ± 1.2 h
total protein half-life in vivo [3]: 6.75 ± 0.38 h
total protein half-life in vivo [4]: 6.19 ± 0.17 h
total protein half-life in vivo [5]: 3.54 ± 0.097 h
total protein half-life in vivo [6]: 6.88 ± 0.64 h
total protein half-life in vivo [7]: 13.4 ± 2.5 h
total protein half-life in vivo [8]: 5.92 ± 0.44 h
total protein half-life in vivo [9]: 11.8 ± 0.38 h
total protein half-life in vivo [10]: 5.86 ± 0.2 h
total protein half-life in vivo [11]: 11.7 ± 1.6 h
